{
  "source": "patent US20230303623A1",
  "about": "“PEPTIDES AND METHODS OF USE” (REALTA LIFE SCIENCES, INC., priority 2020, published 2023)",
  "key": {"C1q": {"target": "T1, C1q (Homo sapiens, UniProt P02745+P02746+P02747)", "T1 construct": "purchased Complement Technology (Tyler, TX)", "T1 sequence (P02745 23-245)": "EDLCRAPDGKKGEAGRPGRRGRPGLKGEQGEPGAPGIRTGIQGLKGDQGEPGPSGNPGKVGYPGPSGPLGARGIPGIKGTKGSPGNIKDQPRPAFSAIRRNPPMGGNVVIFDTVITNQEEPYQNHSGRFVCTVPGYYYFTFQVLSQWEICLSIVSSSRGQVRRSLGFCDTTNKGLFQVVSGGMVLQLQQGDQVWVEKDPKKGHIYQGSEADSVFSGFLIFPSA", "T1 sequence (P02746 28-253)": "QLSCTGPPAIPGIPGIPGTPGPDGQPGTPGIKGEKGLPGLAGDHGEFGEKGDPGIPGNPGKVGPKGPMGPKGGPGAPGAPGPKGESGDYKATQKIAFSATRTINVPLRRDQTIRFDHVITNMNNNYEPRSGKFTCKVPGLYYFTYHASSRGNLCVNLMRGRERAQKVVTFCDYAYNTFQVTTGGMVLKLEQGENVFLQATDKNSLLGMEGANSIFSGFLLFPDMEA", "T1 sequence (P02747 29-245)": "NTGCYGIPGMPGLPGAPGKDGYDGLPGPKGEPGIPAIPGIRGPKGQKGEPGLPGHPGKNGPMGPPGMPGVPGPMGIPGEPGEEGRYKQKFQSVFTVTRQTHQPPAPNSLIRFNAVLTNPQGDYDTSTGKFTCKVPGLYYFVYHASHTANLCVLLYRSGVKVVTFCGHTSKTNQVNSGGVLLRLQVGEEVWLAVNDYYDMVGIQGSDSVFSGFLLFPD", "assay": "C1q binding ELISA-type assay", "settings": "compared to parent peptide", "experimental": "The C1q binding assay was performed as previously described. Briefly, an Immunlon-2 HB ELISA plate was coated with 1 μg/ml C1q in bicarbonate buffer overnight at 4° C. The plates were washed with PBS-T (phosphate buffered saline+0.1% Tween) and then blocked with 1% gelatin/PBS for 2 hours at room temperature. After washing, the plates were incubated with the peptides starting at 2.5 mg/ml and then serially diluted in 1% gelatin/PBS for 1 hour at room temperature followed by washing. Plates were then probed with rabbit antibody raised against the lead peptide […] (SEQ ID NO: 2) that lacked PEGylation at 1:1000 in 1% gelatin/PBS for 1 hour at room temperature followed by a goat anti-rabbit HRP (Sigma Aldrich, St Louis, MO) at 1:1,000 in 1% gelatin/PBS for 1 hour at room temperature with a washing step in between. After addition of TMB substrate solution to the wells, the reaction was stopped using 1N H2SO4, and the plate read on a BioTek Synergy HT plate reader at 450 nm.\nThe astrovirus capsid protein and the PIC1 molecules derived from it inhibit classical complement pathway activation by binding to the pattern recognition molecule C1q. The inventors next tested peptide variant binding to C1q in an ELISA-type assay in which C1q is used as the capture substrate and bound peptide detected with a rabbit polyclonal antibody against the peptide portion of PA-dPEG24 ([…]-d24; SEQ ID NO: 3). Binding curves were derived for the stapled and D-amino acid peptides based on the PA-I8Sar and PA-C9Sar (FIG. 5A-5C) backbone, from which half-maximal binding concentrations were calculated (FIGS. 2A and B, respectively). […] For the peptides based on the PA-C9Sar backbone, C1q was bound to a greater degree than the parent peptide (FIG. 2B)."}, "[1]": {"assay": "Total Antioxidant Capacity (TAC) assay", "settings": "highest peptide concentration 1.5 mM; compared to parent peptide", "how_it_was_run": "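Copper(II)-to-copper(I) reduction kit used per manufacturer to measure antioxidant capacity of PIC1 peptide variants over a concentration range; activity reported at the highest peptide concentration, 1.5 mM.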"}, "[2]": {"test_system": "classical complement pathway activation (C1q with C1r and C1s from A-498 cells)", "assay": "Classical complement activation by A-498 cell supernatant, C4a ELISA", "format": "biochemical, human", "settings": "increasing doses 0-8 mg/ml; listed as RLS-0122", "experimental": "Supernatants from A-498 cells were added to purified human C1q pre-incubated with increasing doses of RLS-0122 or RLS-0174 and loaded onto an IgG coated plate. Samples were then incubated for 1 hour at 37° C. After incubation samples were washed 3 times with PBS-T before the addition of purified human C4 (4 ug/ml) and incubated for 1.5 hours at 37° C. The supernatants were collected for analysis on Quidel's MicroVue Complement C4a ELISA.\nEffective clear-cell renal cell carcinoma (ccRCC) therapies are needed, particularly at the metastatic stage when surgery is ineffective. Complement is a key factor in tissue inflammation, favoring cancer progression through the production of complement component 5a (C5a) (Roumenina et al., Cancer Immunol Res; 7(7) July 2019). Using data mining techniques, ccRCC has been identified as a cancer type expressing concomitantly high expression of the components that are part of the classical complement pathway. High densities of cells producing classical complement pathway components C1q and C4 and the presence of C4 activation fragment deposits in primary tumors are often correlated with poor prognosis. […] The inventors tested the ability of RLS-0122 to block complement activation in human kidney carcinoma cell line A498 system in vitro as assessed by the reduction in C4a levels. […]"}, "CTLA-4": {"target": "T2, CTLA-4 (Homo sapiens, UniProt P16410)", "T2 sequence (P16410 36-223)": "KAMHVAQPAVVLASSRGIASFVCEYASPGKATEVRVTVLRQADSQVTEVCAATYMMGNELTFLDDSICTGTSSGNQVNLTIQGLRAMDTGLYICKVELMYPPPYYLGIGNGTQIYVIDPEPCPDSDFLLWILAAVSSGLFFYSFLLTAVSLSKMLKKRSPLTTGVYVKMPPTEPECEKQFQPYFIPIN", "assay": "CTLA-4 Blockade Bioassay (Promega)", "format": "cell-based", "design": "host or cells: Jurkat T cells (CTLA-4 effector cells) co-cultured with aAPC/Raji cells", "settings": "increasing concentrations; listed as RLS-0122", "experimental": "CTLA-4 effector cells were incubated with aAPC/Raji Cells in the absence or presence of increasing concentrations of anti-CTLA-4 antibody (positive control), RLS-0122, RLS-0150, RLS-0154, RLS-0164 and RLS-0168 and RLS-0088 (negative control). Luminescence was detected in luminometer plate reader. The drop-off in signal with the test peptides at high concentrations is due to cell death as a result of peptide buffer effects on the cells.\nTo assess if PIC1 peptides could block CTLA-4 inhibitory activity in a cell-based assay, select peptides were screened in the CTLA-4 Blockade Bioassay (Promega). This bioluminescent cell-based assay can be used to measure the potency and stability of molecules targeting CTLA-4 and consists of two genetically engineered cell lines: CTLA-4 effector cells: Jurkat T cells expressing human CTLA-4 and a luciferase reporter driven by a native promoter which responds to TCR/CD28 activation and aAPC/Raji Cells: Raji cells expressing an engineered cell surface protein designed to activate cognate TCRs in an antigen-independent manner and endogenously expressing CTLA-4 ligands CD80 and CD86. When the two cell types are co-cultured, CTLA-4 competes with CD28 for their shared ligands, CD80 and CD86 and thus inhibits CD28 pathway activation and promoter-mediated luminescence. Addition of a molecule that blocks the interaction of CTLA-4 with its ligands CD80 and CD86 results in promoter-mediated luminescence."}},
  "note": "Entries after “also recorded” stand apart in the source; their conditions may differ.",
  "data": [
    {"substance": "IAdLILEP(Sar)CCQERAA (IALILEPXCCQERAA; D-Leu; sarcosine; MOD_RES (3)..(3) D-amino acid; MOD_RES (8)..(8) Sarcosine) [PA-0122]", "values": [
      {"measurement": "binding to C1q (binding curves, half-maximal binding), in words", "setting": "C1q", "value": "markedly increased binding to C1q"},
      {"measurement": "total antioxidant capacity, in words", "setting": "[1]", "value": "slight increase in total antioxidant capacity"},
      {"measurement": "C4a generation, in words", "setting": "[2]", "value": "dose-dependently reduced the level of C4a generation; also recorded: can inhibit classical complement pathway activation"},
      {"measurement": "inhibition of CTLA-4 mediated cell signaling (increase in luminescence), in words", "setting": "CTLA-4", "value": "showed inhibitory activity; also recorded: able to inhibit CTLA-4 mediated cell signaling"}
    ]}
  ]
}
